Test: soluble on expression in E. coli; label from the status in PepcDB or PDB records

Sequence	soluble on expression in E. coli
STDISTVASPLFEGTEGCFLLYDASTNAEIAQFNKAKCATQMAPDSTFKIALSLMAFDAEIIDQKTIFKWDKTPKGMEIWNSNHTPKTWMQFSVVWVSQEITQKIGLNKIKNYLKDFDYGNQDFSGDKERNNGLTEAWLESSLKISPEEQIQFLRKIINHNLPVKNSAIENTIENMYLQDLDNSTKLYGKTGAGFTANRTLQNGWFEGFIISKSGHKYVFVSALTGNLGSNLTSSIKAKKNAITILNTLNL	soluble
GSHMSLFDFFKNKGSAATATDRLKLILAKERTLNLPYMEEMRKEIIAVIQKYTKSSDIHFKTLDSNQSVETIEVEIILPR	soluble
MSLGTMSTEATLLERCQSQCELCAASTPLSPFVVAPHALVTVDHAVMLCDTCKGQIENPETVDMNHWRCLNDSMWSQVQPVQVLAWRQLKRISETEGWARDLLDMMYLDEETAKWAEIGMDDDAEKPRDVNGVELKKGDDVTVIKDLPVKGSSMVIKQGTAVRGIALTEDPKHIQGKVNGQTMYIIAEYCRKKEGGSHHHHHH	soluble
MEAEEIIGLLKKGDLEKAKDALSKEIDNLSDEELKEILEVAESVAKEKEDIELLKLVVYYYAEFFGIDKLEEFEGIAKEKGYEGLMHLADLYSLLGYPEKALDIYRELLKTDLIKEKEHIGEIYYGIATIHDELQEYDKALEAINEAVKAFKESNNVEKLHQAEVYRAYITFENGDRDKAKEILAGLLPHVTNREIKAQIHLVFKEIFEDEENYEAAIQESLYSLIEGIDTEVFDLAFDGLIDLIWELILEDKFEEIYKSMPMFKVAIPSLKDFFEGVRRIAMYREGKIGREEVSEILMKVKDERLVSILEFLGEAEV	soluble
MTKLTIFYDGTCPLCAKEMKALRQHDHKQEINTVDIYSDAFSAYPQINPDRANTILHALDNQGNLLLGLDVTYRAWQLVGRGWLYAPLRWPLIRPVADWLYLRFAQNRYRISYWLTGTSRCNSGRCSRLEHHHHHH	soluble
MAHHHHHHMMMMRPDAGRRGDRHEVTRSQWEMHNSVITDDAFLFPKMELMEELHKTQPWKKSPRYFQRVKVSVLAALQMMIHAKRGSPNVTCSNGSGVADSSAASMRNEPSRENWFEVMVLMLGHFNEDEMIVTSAFALPVDASEVECSMNDASQLYMLDFLQYHQRGGTQEGCIGWYHSHPGYTCFLSGTDVNTQQLGQTAQDPWLAIVVDPVRTISTGKLDMKAFRTFPEKYVAEQQGTSQHTQGKHWEGSTTSTWVPSERIREYGVHAHRYYELPITLVRSKDDEAQLECLWSRYWALTFCSNLFTANRKLMTKQIHQLAEVLESGVASRHQTMMKGDGYLPGHKLGSQHQRKGGGAVDDETPDGVEAFKQRSLHVRYLTSSLTSEAASGGNTAGGQKFRLSSMIFLLVLARVFLSF	not soluble
MRKIVLASVVTSLVGCSMGHRDPVEAKQALNQAINETNSRQIDQLPPSVEADLMPDMDTLTASEPKTLQRFRIQAEDVEAKAFFASLVQGTEYSAAIHPAVTGRITLNLTDVTLDEALGVVRDLYGFEVVKEGKVIQVYPAGLRTVTIPVDYLQFKRTGRSLTSITTGTITNTDTNNSNSSSSSSSSISSNSSSDGSSSNSNSNRSDARGGTEIETTNESDFWPLLEKAVAQLLGGSGGQTVIVNPQAGVLTLRAYPDEIRQVNEFLGISQQRMHRQVILEAKILEVTLSDGYQQGINWSKAFSSNGANYKIGSGSITQDSNGNPITSVLPGLDAIGNLLGGQSNVVISSGSFDAVISFMATQGDLNVLSSPRVTASNNQKAVIKVGTDEYYVTDLSSVVGTGDNAQASPDITLTPFFSGISLDVTPQIDDQGNVLLHVHPAVIEVEQQTKKILYRSEEIELPLARSSIRESDSVIRAKDGDVVVIGGLMKSNTVDQVSKVPFLGDVPALGHLFRNTTKLTQKTELVILLKPTVVGVNTWQKELERSRSLLQEWFPDSQ	not soluble
MKETDLAFFRSFKNRILKEINVMQLCRVVTVKGARADVQPMALKSDGGKRALILNALITKHCQSDISQGAVVVVVFCDRDIDNYRSSADYSLSSDRMHSQNDAVIMGVIA	not soluble
MIRHFKHKGLQLFFETGDKSGIRPDHASRLARQLRQLNDAVNPREMNIPGWKLHPLSGDLSGYWSVMVNGNWRMIFVFDGEDVILVDYRDDH	not soluble
MAFEESLVMVSSLSRLSICTSSAYDEAATKNQPDSCVSTSLENFDGAEADGEVSDDGEGKENVRESDSDKETRGFYSLPVTPSRRRRKLTVSGELDANESNKNGSKCSLRRQRREKKKKGVNGECDVGGREGLTVLTRARGGDRSLRMGLQEVKACRDLGFELEVPVPGRISVSTTGSNFDTQTSSGGDSPIATWRISSPGDDPKEVKARLKVWAQAVALASATRQAS	not soluble
GMGYTLAEFLAHAIALETEAAERYVELADMMEAHNNLDTATVFRDMARFSTLHGDEIKQRSRALELPKLMSWQYRWKTPPEVGDENDIHYLMTPYHALRYARDNEIRGMEYYKEAAANSADPEVKRLGADFAAEEAEHVVALDKWIEKTPRPSITWSEDADPAQCVD	soluble
PDVRRDKPVTGEQIEVFANKLGEQWKILAPYLEMKDSEIRQIECDSEDMKMRAKQLLVAWQDQEGVHATPENLINALNKSGLSDLAESLTNDNETNS	soluble
ARVDQTPRIATKETGESLTINCVLRDTACALDSTNWYRTKLGSTKEQTISIGGRYSETVDEGSNSASLTIRDLRVEDSGTYKCKAYRRCAFNTGVGYKEGAGTVLTVK	soluble
MGHHHHHHSHMSVMFDPDTAIYPFPPKPTPLSIDEKAYYREKIKRLLKERNAVMVAHYYTDPEIQQLAEETGGCISDSLEMARFGAKHPASTLLVAGVRFMGETAKILSPEKTILMPTLQAECSLDLGCPVEEFNAFCDAHPDRTVVVYANTSAAVKARADWVVTSSIAVELIDHLDSLGEKIIWAPDKHLGRYVQKQTGGDILCWQGACIVHDEFKTQALTRLQEEYPDAAILVHPESPQAIVDMADAVGSTSQLIAAAKTLPHQRLIVATDRGIFYKMQQAVPDKELLEAPTAGEGATCRSCAHCPWMAMNGLQAIAEALEQEGSNHEVHVDERLRERALVPLNRMLDFAATLRG	soluble
MSLDSHRISVLHVDDEPGLGETTAEFLRQQSDGFSVETATSTSEGLKRLTEAPFDCIVSDYDMADMDGIEFLRAVRAEYPDLPFVLFTGKGSEEVASEAVSAGVSDYLQKRGGTERYTLLANRITNLVTQHRAEERLRTRVQQQEAVADLGQYALTGCGLDALFERAVESVAAGLNTEYSKVLEYRPADNKFLLRAGVGWQSGLVGEAAVGAGEESQAGYTLQTEEPVVVEDLRTESRFSGPSLLLDHGVVSGISVIIGTTTEPWGVLGAHTSERRPFTKDDITFVRGVANTLTNAIEREQLEGTLRQAEQRYKTLLENFPGGGVFLFDDDLRYLIARGEGLSAFGLTPADVEGKTLAEVFPPAVVERQKPKYRAALDGETQVWTQEYEGKQYRLSTLPVTGSSDKQLGMVVSMDITGLSASEGHHHHHH	soluble
MAHHHHHHMSTSRPAAVLHAASDDEKEDDPMAVLWQHERHVLVLTRAGKPIFSQHGHEEQLSPLCALLQVLLCIHEDKGGGDEQSRGPSQPAPRSDGTASSAAVKDELHQVVYYRSKSASGQACHQGDVNAQVQALTLFFYVQGDLIYLMSVRSVAPSLPAGAVEMSNAEGECEPPPLASYCLAQLRHVHHCILLVLPTVNTLLTRSPGLDVMAMYTSADRAALRELIESYQTELTYAVGAVATLALSVEKRRVVERALLCCYRSCADAAVGPPAHQLFSFLYFKNYLVAAVGPPETYAADPKVSVSAPLALGPDTALCGCLHVDDALLLYRYARSLVSRQLGEAWVPVCLPRFNSTGYLWCYAVNFTRYARELRKQQGKTEWPKVWEEHTELDIMLLHVSASQDDFAALSRSTRRFAQILCAPAVEDNFYYRLEEELYYRTPAPLTELLPSSHTSVSTCSSRDLSGYTDGVPVVVWRGHSRQ	not soluble

Source: the DeepSol protein solubility set
